# PMC3678299 (FEBS Open Bio, 2013)
# B1: tropomyosin-related kinase A (TrkA) (receptor)
# chain: not shown
# Biological target: the molecule itself
# Assay: cross-linking; chemical cross-linking in TrkA-transfected PC12 cells, with or without LPC; data not shown
protein,measurement,value
B1,stoichiometry N,2
